According to patent US20260053903A1:

Target: dendritic cell-specific intercellular adhesion molecule-3-grabbing nonintegrin (DC-SIGN) (UniProt Q9NNX6)
Assay: cell-based or functional assay

Sequence of UniProt Q9NNX6 (Q9NNX6 whole entry): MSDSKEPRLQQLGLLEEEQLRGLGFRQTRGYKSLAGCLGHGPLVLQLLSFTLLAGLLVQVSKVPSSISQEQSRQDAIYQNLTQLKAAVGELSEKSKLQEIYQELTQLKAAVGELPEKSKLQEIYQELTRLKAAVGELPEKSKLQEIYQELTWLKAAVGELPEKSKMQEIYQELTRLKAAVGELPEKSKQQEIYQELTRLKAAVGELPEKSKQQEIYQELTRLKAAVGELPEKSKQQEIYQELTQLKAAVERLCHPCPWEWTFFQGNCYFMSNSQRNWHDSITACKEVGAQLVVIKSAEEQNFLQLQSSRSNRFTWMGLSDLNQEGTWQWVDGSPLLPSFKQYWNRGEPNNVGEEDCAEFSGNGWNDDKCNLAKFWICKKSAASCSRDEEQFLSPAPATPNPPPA

“Man-OvaI/II (combination of particles PP7-Man900-OvaI100 and PP7-Man900-OvaII100) (from UniProt P03630 2-127)” showed an uptake of fluorophore-labeled VLPs by moDCs over 30 min (flow cytometry) (fold against PE-OvaI/II) of 5.
